Reference: patent US20050261196A1 (UNIVERSITY OF CHICAGO, published 2005)
Where no end group is shown, it is not given here. [ ]: non-standard residue; d: D form.

T1: D-PIK(reversed)
T1 sequence: KRRYKYKKR

T2: D-PIK
T2 sequence: RKKYKYRRK

T3: D-PIK(int.)
T3 sequence: RKKYKYRRK


Legend:
D-PIK(reversed) = tested on: T1, D-PIK(reversed)
D-PIK = tested on: T2, D-PIK
D-PIK(int.) = tested on: T3, D-PIK(int.)
[1] = biological target: myosin light chain kinase (215 kDa MLCK expressed by Caco-2 cells) (UniProt Q15746 1-1914, limits assumed); experiment: cell-based or functional assay
Chain of myosin light chain kinase (215 kDa MLCK expressed by Caco-2 cells) (Q15746 whole entry): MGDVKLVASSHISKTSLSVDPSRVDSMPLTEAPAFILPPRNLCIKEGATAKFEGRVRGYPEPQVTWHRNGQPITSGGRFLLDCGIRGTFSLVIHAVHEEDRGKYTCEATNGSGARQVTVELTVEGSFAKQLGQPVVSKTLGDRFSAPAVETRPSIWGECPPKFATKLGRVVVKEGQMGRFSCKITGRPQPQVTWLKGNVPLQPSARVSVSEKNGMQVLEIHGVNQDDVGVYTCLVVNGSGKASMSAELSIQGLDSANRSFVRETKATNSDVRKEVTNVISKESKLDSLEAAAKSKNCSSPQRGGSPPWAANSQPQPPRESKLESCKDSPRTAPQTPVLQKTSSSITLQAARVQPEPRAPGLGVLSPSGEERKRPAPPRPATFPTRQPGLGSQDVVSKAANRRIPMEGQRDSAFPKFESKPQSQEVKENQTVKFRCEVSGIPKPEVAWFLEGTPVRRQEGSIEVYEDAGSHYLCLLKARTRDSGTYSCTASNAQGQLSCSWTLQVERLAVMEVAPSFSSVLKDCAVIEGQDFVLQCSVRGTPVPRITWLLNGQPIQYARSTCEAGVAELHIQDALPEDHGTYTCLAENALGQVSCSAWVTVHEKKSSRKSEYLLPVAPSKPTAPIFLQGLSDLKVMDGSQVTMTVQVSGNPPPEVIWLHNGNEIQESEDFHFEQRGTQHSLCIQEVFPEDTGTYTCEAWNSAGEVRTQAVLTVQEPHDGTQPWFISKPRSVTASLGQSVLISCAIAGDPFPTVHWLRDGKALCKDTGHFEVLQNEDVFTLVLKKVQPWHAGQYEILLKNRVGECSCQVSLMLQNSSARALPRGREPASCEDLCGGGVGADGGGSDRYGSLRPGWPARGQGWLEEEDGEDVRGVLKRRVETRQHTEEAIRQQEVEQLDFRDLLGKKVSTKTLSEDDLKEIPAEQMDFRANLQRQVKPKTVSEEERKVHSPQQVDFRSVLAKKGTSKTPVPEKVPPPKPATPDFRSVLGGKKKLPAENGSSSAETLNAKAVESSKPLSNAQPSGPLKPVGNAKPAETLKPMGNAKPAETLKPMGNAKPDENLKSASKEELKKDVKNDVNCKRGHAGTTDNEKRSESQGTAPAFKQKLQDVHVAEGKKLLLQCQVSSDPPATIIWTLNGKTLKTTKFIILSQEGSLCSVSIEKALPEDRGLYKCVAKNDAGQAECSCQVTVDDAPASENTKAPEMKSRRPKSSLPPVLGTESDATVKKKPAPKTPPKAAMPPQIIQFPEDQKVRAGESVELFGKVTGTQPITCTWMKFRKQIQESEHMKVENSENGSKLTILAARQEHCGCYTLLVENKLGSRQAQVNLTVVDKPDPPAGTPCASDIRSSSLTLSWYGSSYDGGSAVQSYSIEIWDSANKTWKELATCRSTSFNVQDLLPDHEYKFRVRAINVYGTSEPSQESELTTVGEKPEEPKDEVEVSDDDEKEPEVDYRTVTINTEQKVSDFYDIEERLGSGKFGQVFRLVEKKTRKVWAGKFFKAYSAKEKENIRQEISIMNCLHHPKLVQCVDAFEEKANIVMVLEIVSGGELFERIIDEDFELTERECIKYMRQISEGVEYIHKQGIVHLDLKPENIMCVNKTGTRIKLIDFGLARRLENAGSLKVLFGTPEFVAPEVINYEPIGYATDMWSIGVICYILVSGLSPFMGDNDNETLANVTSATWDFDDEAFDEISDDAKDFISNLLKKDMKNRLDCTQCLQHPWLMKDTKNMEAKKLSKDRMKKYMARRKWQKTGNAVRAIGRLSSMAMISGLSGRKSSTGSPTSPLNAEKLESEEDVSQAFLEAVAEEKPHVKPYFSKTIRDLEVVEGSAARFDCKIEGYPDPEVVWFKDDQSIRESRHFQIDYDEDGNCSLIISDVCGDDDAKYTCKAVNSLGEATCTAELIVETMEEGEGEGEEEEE

Molecule | Δ TER (elevation in transepithelial resistance of Caco-2 monolayers, 500 µM peptide, one hour) [1] [%] | CaMPKII activity (phosphorylation of plate-bound pseudo-substrate peptide, anti-phosphoserine ELISA) (D-PIK(reversed)) | CaMPKII activity (phosphorylation of plate-bound pseudo-substrate peptide, anti-phosphoserine ELISA) (D-PIK) | CaMPKII activity (phosphorylation of plate-bound pseudo-substrate peptide, anti-phosphoserine ELISA) (D-PIK(int.))
Calcium/calmodulin dependent protein kinase II (CaMPKII) | – | Neither D-PIK nor D-PIK(reversed) nor D-PIK(int) demonstrated striking inhibitory effects toward PKA or CaMPKII at concentrations up to 5 mM | Neither D-PIK nor D-PIK(reversed) nor D-PIK(int) demonstrated striking inhibitory effects toward PKA or CaMPKII at concentrations up to 5 mM | Neither D-PIK nor D-PIK(reversed) nor D-PIK(int) demonstrated striking inhibitory effects toward PKA or CaMPKII at concentrations up to 5 mM
[dR][dK][dK][dY][dK][dY][dR][dR][dK]-NH2 [D-PIK] | 41 | – | – | –

Continued, in another order:

Δ TER (elevation in transepithelial resistance of Caco-2 monolayers, 500 µM peptide, one hour) [1] [%] | Molecule | CaMPKII activity (phosphorylation of plate-bound pseudo-substrate peptide, anti-phosphoserine ELISA) (D-PIK(reversed)) | CaMPKII activity (phosphorylation of plate-bound pseudo-substrate peptide, anti-phosphoserine ELISA) (D-PIK) | CaMPKII activity (phosphorylation of plate-bound pseudo-substrate peptide, anti-phosphoserine ELISA) (D-PIK(int.))
45 | RKKYKYRRK-NH2 (not fully specified; printed as Arg-Lys-Lys-Tyr-Lys-Tyr-Arg-Arg-Lys) [PIK (SEQ ID NO: 12)] | – | – | –
47 | RKK[dY][dK][dY]RRK-NH2 [D-PIK(int.)] | – | – | –
50 | [dK][dR][dR][dY][dK][dY][dK][dK][dR]-NH2 [D-PIK(reversed)] | – | – | –
